This assay has as its target T1, N-terminally GST-tagged human β-catenin (human, UniProt P35222 1-781, limits assumed).
T1 construct: not shown: N-terminal GST tag
T1 sequence (looked up): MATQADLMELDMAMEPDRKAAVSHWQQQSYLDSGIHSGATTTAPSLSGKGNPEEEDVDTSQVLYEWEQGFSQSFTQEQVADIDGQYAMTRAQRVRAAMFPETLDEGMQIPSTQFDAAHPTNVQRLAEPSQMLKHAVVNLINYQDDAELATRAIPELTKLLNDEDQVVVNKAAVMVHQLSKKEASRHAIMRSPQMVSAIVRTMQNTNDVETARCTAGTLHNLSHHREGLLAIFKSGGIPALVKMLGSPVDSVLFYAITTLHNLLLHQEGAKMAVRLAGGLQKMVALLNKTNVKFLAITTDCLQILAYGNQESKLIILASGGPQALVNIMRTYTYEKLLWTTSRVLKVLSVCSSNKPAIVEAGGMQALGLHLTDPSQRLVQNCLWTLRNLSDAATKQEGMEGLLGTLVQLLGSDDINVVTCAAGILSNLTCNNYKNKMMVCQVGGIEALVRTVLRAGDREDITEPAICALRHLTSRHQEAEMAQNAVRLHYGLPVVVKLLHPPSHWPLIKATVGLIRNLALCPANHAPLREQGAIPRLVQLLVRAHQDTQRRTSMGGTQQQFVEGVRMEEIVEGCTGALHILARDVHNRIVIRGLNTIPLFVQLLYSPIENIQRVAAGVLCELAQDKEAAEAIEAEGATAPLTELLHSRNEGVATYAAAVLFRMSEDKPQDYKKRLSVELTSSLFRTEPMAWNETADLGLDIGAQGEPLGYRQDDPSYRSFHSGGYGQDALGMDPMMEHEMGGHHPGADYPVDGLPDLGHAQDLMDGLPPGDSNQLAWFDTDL
The assay can be described thus: fluorescence polarization; FITC-labeled peptide, GST-tagged human β-catenin. How it is done:
Peptide sequences derived from TCF4 and Axin were synthesized and fluorescently labeled (FIG. 4b) and the affinity of both binding domains to β-catenin was assessed. The sequence of TCF4 was modified in such a way that the loop (9 amino acids; not visible in the crystal structure) between the extended region and the α-helix was replaced by two β-alanines (βAla). Labeled peptides and GST-tagged human β-catenin were used in a fluorescence polarization assay enabling the determination of the stability of these peptide/β-catenin complexes (FIG. 4c). […] Therefore, the Axin derivative was considered to be the most promising candidate for the hydrocarbon stapling approach.
For orientation: In fluorescence polarisation assays a small probe gives low polarisation when free and higher when bound to something large.

This is an account of results in patent US20150284437A1 (Harvard, published 2015).

Non-standard residues stand in square brackets, D forms with d. No end group written: not given here. βAla = NCCC(=O)O

B1: TCF4 derived peptide, fluorescently labeled (peptide, UniProt Q9NQB0 10-53, looked up)
peptide: DELISFKDEGEQE[βAla][βAla]ERDLADVKSSLVN
modifications: also: FITC label, place not given here
notes: A synthetic fragment, not the whole protein
For orientation: Kd means a measure of binding affinity in units of concentration. Lower therefore signals a tighter complex. In turn, B1 gave a Kd of 300 nM.

B2: Axin wild type sequence peptide ax-WT, fluorescently labeled (peptide)
peptide: ENPESILDEHVQRVM
modifications: also: FITC label, site not given here
notes: also called axin-WT; Axin derived peptide
Regarding B2, the Kd was ~5000 nM.
